# Laboratory results: patent US20120252071A1 (ROCHE DIAGNOSTICS OPERATIONS, published 2012)
# Biological target: the molecule itself
# Test: non-reducing SDS-PAGE (self-association by disulfide bonds)
row,Protein,binding result
1,"T7 variant #26 [Cys723Ser, Ala702Val, Val795Ile] (enzyme, not shown: N-terminal His-tag) MNTINIAKNDFSDIELAAIPFNTLADHYGERLAREQLALEHESYEMGEARFRKMFERQLKAGEVADNAAAKPLITTLLPKMIARINDWFEEVKAKRGKRPTAFQFLQEIKPEAVAYITIKTTLACLTSADNTTVQAVASAIGRAIEDEARFGRIRDLEAKHFKKNVEEQLNKRVGHVYKKAFMQVVEADMLSKGLLGGEAWSSWHKEDSIHVGVRCIEMLIESTGMVSLHRQNAGVVGQDSETIELAPEYAEAIATRAGALAGISPMFQPCVVPPKPWTGITGGGYWANGRRPLALVRTHSKKALMRYEDVYMPEVYKAINIAQNTAWKINKKVLAVANVITKWKHCPVEDIPAIEREELPMKPEDIDMNPEALTAWKRAAAAVYRKDKARKSRRISLEFMLEQANKFANHKAIWFPYNMDWRGRVYAVSMFNPQGNDMTKGLLTLAKGKPIGKEGYYWLKIHGANCAGVDKVPFPERIKFIEENHENIMACAKSPLENTWWAEQDSPFCFLAFCFEYAGVQHHGLSYNCSLPLAFDGSCSGIQHFSAMLRDEVGGRAVNLLPSETVQDIYGIVAKKVNEILQADAINGTDNEVVTVTDENTGEISEKVKLGTKALAGQWLAYGVTRSVTKRSVMTLAYGSKEFGFRQQVLEDTIQPAIDSGKGLMFTQPNQAAGYMAKLIWESVSVTVVAAVEAMNWLKSVAKLLAAEVKDKKTGEILRKRSAVHWVTPDGFPVWQEYKKPIQTRLNLMFLGQFRLQPTINTNKDSEIDAHKQESGIAPNFVHSQDGSHLRKTIVWAHEKYGIESFALIHDSFGTIPADAANLFKAVRETMVDTYESCDVLADFYDQFADQLHESQLDKMPALPAKGNLNLRDILESDFAFA",no binding
2,"T7 variant #36 [C125S, C347S, C492S, C515S, C723S, C839S, V426L, V650L, A702V, V795I] (enzyme, not shown: N-terminal His-tag) MNTINIAKNDFSDIELAAIPFNTLADHYGERLAREQLALEHESYEMGEARFRKMFERQLKAGEVADNAAAKPLITTLLPKMIARINDWFEEVKAKRGKRPTAFQFLQEIKPEAVAYITIKTTLASLTSADNTTVQAVASAIGRAIEDEARFGRIRDLEAKHFKKNVEEQLNKRVGHVYKKAFMQVVEADMLSKGLLGGEAWSSWHKEDSIHVGVRCIEMLIESTGMVSLHRQNAGVVGQDSETIELAPEYAEAIATRAGALAGISPMFQPCVVPPKPWTGITGGGYWANGRRPLALVRTHSKKALMRYEDVYMPEVYKAINIAQNTAWKINKKVLAVANVITKWKHSPVEDIPAIEREELPMKPEDIDMNPEALTAWKRAAAAVYRKDKARKSRRISLEFMLEQANKFANHKAIWFPYNMDWRGRLYAVSMFNPQGNDMTKGLLTLAKGKPIGKEGYYWLKIHGANCAGVDKVPFPERIKFIEENHENIMASAKSPLENTWWAEQDSPFCFLAFSFEYAGVQHHGLSYNCSLPLAFDGSCSGIQHFSAMLRDEVGGRAVNLLPSETVQDIYGIVAKKVNEILQADAINGTDNEVVTVTDENTGEISEKVKLGTKALAGQWLAYGVTRSVTKRSVMTLAYGSKEFGFRQQLLEDTIQPAIDSGKGLMFTQPNQAAGYMAKLIWESVSVTVVAAVEAMNWLKSVAKLLAAEVKDKKTGEILRKRSAVHWVTPDGFPVWQEYKKPIQTRLNLMFLGQFRLQPTINTNKDSEIDAHKQESGIAPNFVHSQDGSHLRKTIVWAHEKYGIESFALIHDSFGTIPADAANLFKAVRETMVDTYESSDVLADFYDQFADQLHESQLDKMPALPAKGNLNLRDILESDFAFA",no binding
3,"T7 variant #32 [Cys723Ser, Val426Leu, Ala702Val, Val795Ile] (enzyme, not shown: N-terminal His-tag) MNTINIAKNDFSDIELAAIPFNTLADHYGERLAREQLALEHESYEMGEARFRKMFERQLKAGEVADNAAAKPLITTLLPKMIARINDWFEEVKAKRGKRPTAFQFLQEIKPEAVAYITIKTTLACLTSADNTTVQAVASAIGRAIEDEARFGRIRDLEAKHFKKNVEEQLNKRVGHVYKKAFMQVVEADMLSKGLLGGEAWSSWHKEDSIHVGVRCIEMLIESTGMVSLHRQNAGVVGQDSETIELAPEYAEAIATRAGALAGISPMFQPCVVPPKPWTGITGGGYWANGRRPLALVRTHSKKALMRYEDVYMPEVYKAINIAQNTAWKINKKVLAVANVITKWKHCPVEDIPAIEREELPMKPEDIDMNPEALTAWKRAAAAVYRKDKARKSRRISLEFMLEQANKFANHKAIWFPYNMDWRGRLYAVSMFNPQGNDMTKGLLTLAKGKPIGKEGYYWLKIHGANCAGVDKVPFPERIKFIEENHENIMACAKSPLENTWWAEQDSPFCFLAFCFEYAGVQHHGLSYNCSLPLAFDGSCSGIQHFSAMLRDEVGGRAVNLLPSETVQDIYGIVAKKVNEILQADAINGTDNEVVTVTDENTGEISEKVKLGTKALAGQWLAYGVTRSVTKRSVMTLAYGSKEFGFRQQVLEDTIQPAIDSGKGLMFTQPNQAAGYMAKLIWESVSVTVVAAVEAMNWLKSVAKLLAAEVKDKKTGEILRKRSAVHWVTPDGFPVWQEYKKPIQTRLNLMFLGQFRLQPTINTNKDSEIDAHKQESGIAPNFVHSQDGSHLRKTIVWAHEKYGIESFALIHDSFGTIPADAANLFKAVRETMVDTYESCDVLADFYDQFADQLHESQLDKMPALPAKGNLNLRDILESDFAFA",no binding
4,"T7 variant #28 [Cys723Ser, Val426Leu, Ala702Val] (enzyme, not shown: N-terminal His-tag) MNTINIAKNDFSDIELAAIPFNTLADHYGERLAREQLALEHESYEMGEARFRKMFERQLKAGEVADNAAAKPLITTLLPKMIARINDWFEEVKAKRGKRPTAFQFLQEIKPEAVAYITIKTTLACLTSADNTTVQAVASAIGRAIEDEARFGRIRDLEAKHFKKNVEEQLNKRVGHVYKKAFMQVVEADMLSKGLLGGEAWSSWHKEDSIHVGVRCIEMLIESTGMVSLHRQNAGVVGQDSETIELAPEYAEAIATRAGALAGISPMFQPCVVPPKPWTGITGGGYWANGRRPLALVRTHSKKALMRYEDVYMPEVYKAINIAQNTAWKINKKVLAVANVITKWKHCPVEDIPAIEREELPMKPEDIDMNPEALTAWKRAAAAVYRKDKARKSRRISLEFMLEQANKFANHKAIWFPYNMDWRGRLYAVSMFNPQGNDMTKGLLTLAKGKPIGKEGYYWLKIHGANCAGVDKVPFPERIKFIEENHENIMACAKSPLENTWWAEQDSPFCFLAFCFEYAGVQHHGLSYNCSLPLAFDGSCSGIQHFSAMLRDEVGGRAVNLLPSETVQDIYGIVAKKVNEILQADAINGTDNEVVTVTDENTGEISEKVKLGTKALAGQWLAYGVTRSVTKRSVMTLAYGSKEFGFRQQVLEDTIQPAIDSGKGLMFTQPNQAAGYMAKLIWESVSVTVVAAVEAMNWLKSVAKLLAAEVKDKKTGEILRKRSAVHWVTPDGFPVWQEYKKPIQTRLNLMFLGQFRLQPTINTNKDSEIDAHKQESGIAPNFVHSQDGSHLRKTVVWAHEKYGIESFALIHDSFGTIPADAANLFKAVRETMVDTYESCDVLADFYDQFADQLHESQLDKMPALPAKGNLNLRDILESDFAFA",no binding
5,"T7 variant #35 [Cys723Ser, Val426Leu, Val650Leu, Ala702Val, Val795Ile] (enzyme, not shown: N-terminal His-tag) MNTINIAKNDFSDIELAAIPFNTLADHYGERLAREQLALEHESYEMGEARFRKMFERQLKAGEVADNAAAKPLITTLLPKMIARINDWFEEVKAKRGKRPTAFQFLQEIKPEAVAYITIKTTLACLTSADNTTVQAVASAIGRAIEDEARFGRIRDLEAKHFKKNVEEQLNKRVGHVYKKAFMQVVEADMLSKGLLGGEAWSSWHKEDSIHVGVRCIEMLIESTGMVSLHRQNAGVVGQDSETIELAPEYAEAIATRAGALAGISPMFQPCVVPPKPWTGITGGGYWANGRRPLALVRTHSKKALMRYEDVYMPEVYKAINIAQNTAWKINKKVLAVANVITKWKHCPVEDIPAIEREELPMKPEDIDMNPEALTAWKRAAAAVYRKDKARKSRRISLEFMLEQANKFANHKAIWFPYNMDWRGRLYAVSMFNPQGNDMTKGLLTLAKGKPIGKEGYYWLKIHGANCAGVDKVPFPERIKFIEENHENIMACAKSPLENTWWAEQDSPFCFLAFCFEYAGVQHHGLSYNCSLPLAFDGSCSGIQHFSAMLRDEVGGRAVNLLPSETVQDIYGIVAKKVNEILQADAINGTDNEVVTVTDENTGEISEKVKLGTKALAGQWLAYGVTRSVTKRSVMTLAYGSKEFGFRQQLLEDTIQPAIDSGKGLMFTQPNQAAGYMAKLIWESVSVTVVAAVEAMNWLKSVAKLLAAEVKDKKTGEILRKRSAVHWVTPDGFPVWQEYKKPIQTRLNLMFLGQFRLQPTINTNKDSEIDAHKQESGIAPNFVHSQDGSHLRKTIVWAHEKYGIESFALIHDSFGTIPADAANLFKAVRETMVDTYESCDVLADFYDQFADQLHESQLDKMPALPAKGNLNLRDILESDFAFA",no binding
6,"T7 variant #33 [Cys125Ser, Cys347Ser, Cys492Ser, Cys515Ser, Cys723Ser, Cys839Ser, Val426Leu, Ala702Val, Val795Ile] (enzyme, not shown: N-terminal His-tag) MNTINIAKNDFSDIELAAIPFNTLADHYGERLAREQLALEHESYEMGEARFRKMFERQLKAGEVADNAAAKPLITTLLPKMIARINDWFEEVKAKRGKRPTAFQFLQEIKPEAVAYITIKTTLASLTSADNTTVQAVASAIGRAIEDEARFGRIRDLEAKHFKKNVEEQLNKRVGHVYKKAFMQVVEADMLSKGLLGGEAWSSWHKEDSIHVGVRCIEMLIESTGMVSLHRQNAGVVGQDSETIELAPEYAEAIATRAGALAGISPMFQPCVVPPKPWTGITGGGYWANGRRPLALVRTHSKKALMRYEDVYMPEVYKAINIAQNTAWKINKKVLAVANVITKWKHSPVEDIPAIEREELPMKPEDIDMNPEALTAWKRAAAAVYRKDKARKSRRISLEFMLEQANKFANHKAIWFPYNMDWRGRLYAVSMFNPQGNDMTKGLLTLAKGKPIGKEGYYWLKIHGANCAGVDKVPFPERIKFIEENHENIMASAKSPLENTWWAEQDSPFCFLAFSFEYAGVQHHGLSYNCSLPLAFDGSCSGIQHFSAMLRDEVGGRAVNLLPSETVQDIYGIVAKKVNEILQADAINGTDNEVVTVTDENTGEISEKVKLGTKALAGQWLAYGVTRSVTKRSVMTLAYGSKEFGFRQQVLEDTIQPAIDSGKGLMFTQPNQAAGYMAKLIWESVSVTVVAAVEAMNWLKSVAKLLAAEVKDKKTGEILRKRSAVHWVTPDGFPVWQEYKKPIQTRLNLMFLGQFRLQPTINTNKDSEIDAHKQESGIAPNFVHSQDGSHLRKTIVWAHEKYGIESFALIHDSFGTIPADAANLFKAVRETMVDTYESSDVLADFYDQFADQLHESQLDKMPALPAKGNLNLRDILESDFAFA",no binding
7,"T7 variant #30 [Cys723Ser, Val426Leu, Val795Ile] (enzyme, not shown: N-terminal His-tag) MNTINIAKNDFSDIELAAIPFNTLADHYGERLAREQLALEHESYEMGEARFRKMFERQLKAGEVADNAAAKPLITTLLPKMIARINDWFEEVKAKRGKRPTAFQFLQEIKPEAVAYITIKTTLACLTSADNTTVQAVASAIGRAIEDEARFGRIRDLEAKHFKKNVEEQLNKRVGHVYKKAFMQVVEADMLSKGLLGGEAWSSWHKEDSIHVGVRCIEMLIESTGMVSLHRQNAGVVGQDSETIELAPEYAEAIATRAGALAGISPMFQPCVVPPKPWTGITGGGYWANGRRPLALVRTHSKKALMRYEDVYMPEVYKAINIAQNTAWKINKKVLAVANVITKWKHCPVEDIPAIEREELPMKPEDIDMNPEALTAWKRAAAAVYRKDKARKSRRISLEFMLEQANKFANHKAIWFPYNMDWRGRLYAVSMFNPQGNDMTKGLLTLAKGKPIGKEGYYWLKIHGANCAGVDKVPFPERIKFIEENHENIMACAKSPLENTWWAEQDSPFCFLAFCFEYAGVQHHGLSYNCSLPLAFDGSCSGIQHFSAMLRDEVGGRAVNLLPSETVQDIYGIVAKKVNEILQADAINGTDNEVVTVTDENTGEISEKVKLGTKALAGQWLAYGVTRSVTKRSVMTLAYGSKEFGFRQQVLEDTIQPAIDSGKGLMFTQPNQAAGYMAKLIWESVSVTVVAAVEAMNWLKSAAKLLAAEVKDKKTGEILRKRSAVHWVTPDGFPVWQEYKKPIQTRLNLMFLGQFRLQPTINTNKDSEIDAHKQESGIAPNFVHSQDGSHLRKTIVWAHEKYGIESFALIHDSFGTIPADAANLFKAVRETMVDTYESCDVLADFYDQFADQLHESQLDKMPALPAKGNLNLRDILESDFAFA",no binding
